Measurements: PMC10699557 (2023)
Numbered stars: 1 amine (or outer) side, 2 acyl side, 3 side chain; on linkers, the order of the positions; unused ones are H or OH. Bridge positions count the residues as written; N and C are the ends. Primed or numbered codes have the meaning given here. Ends that are not written are not given here. DVP = divinylpyrimidine, c1nc(CC[*:1])cc(CC[*:2])n1; DVT″ = divinyltriazine

Legend:
HumRadA22 [1] = experiment: FP
HumRadA22 [2] = experiment: ITC
HumRadA22 [3] = experiment: ITC; remark: listed apart in the source

Row | Binder | Kd (HumRadA22 [1]) [nM] | Kd (HumRadA22 [2]) [nM] | Kd (HumRadA22 [3]) [nM]
1 | GFSGFSTASGKKLNVSCQALQKACKLFSG (linker 17-24 via DVP) [SP24, tag-free, stapled with DVP] | 13 | 21 | –
2 | RRRRRRRRRGCSGFSTASGKKLNVSTQACQKAVKLFSG (stapled (linker not stated for SP31)) [SP31] | – | – | 44
3 | GCSGFSTASGKKLNVSTQACQKAVKLFSG (linker 2-20 via DVP (inferred)) [SP30, tag-free, stapled with DVP] | 13 | 26 | –
4 | VNSSAFSGFSTASGKKLNVSTEALQKAVKLFSDIENIS [BRC8-2 template] | – | 4 | –
5 | GSVNSSAFSGFSTASGKKLNVSCEALQKACKLFSDI (linker 23-30 via DVT″) [SP2, tag-free, stapled with DVT] | – | 17 | –
